Assay results taken from patent US20230087785A1, “Leucine-Rich Repeat Kinase 2 Allosteric Modulators” (VIB VZW, priority 2020, published 2023).

Target: T1, full-length LRRK2 (Homo sapiens, UniProt Q5S007, M2397T/R50H)
T1 construct: Full-length human LRRK2 was expressed and purified based on previously developed protocols; SF tag (FLAG-tag + Twin-Strep-tag); made in house; host or cells: HEK 293T
Test: Microscale thermophoresis (MST) affinity measurement
Format: binding
Conditions: m-TAMRA-labeled Nb titrated with LRRK2; 500 μM GDP
From the text: Binding isotherms are shown, obtained by titrating increasing concentrations of LRRK2 to fluorescently (m-TAMRA)-labeled Nbs and measuring the MST signals. Nbs are classified into four functional groups as defined in FIG. 2d with (FIG. 13A) group 1 Nbs, (FIG. 13B) group 2 Nbs, (FIG. 13C) group 3 Nbs, and (FIG. 13D) group 4 Nbs. In panel (FIG. 13E) two negative controls are shown, where LRRK2 was either titrated to free m-TAMRA or to a m-TAMRA-labeled irrelevant Nb. All measurements were performed in presence of 500 μM GDP, except for Nb42 where GTPγS was used. The corresponding equilibrium dissociation constants (Kd±standard error) obtained by fitting with a quadratic binding equation are given (each data point is the average of three independent measurements with the error bars representing the standard deviation; NB=no MST binding signal detectable).
To determine the binding affinity (dissociation constant KD) of the ten Nbs for LRRK2, two methods were used in parallel: microscale thermophoresis (MST) and bio-layer interferometry (BLI). […] For the BLI experiment LRRK2 was first trapped on a streptavidin-coated biosensor using biotinylated Nb40 as trapping agent (except to assess binding of Nb40, where Nb42 was used as trapping agent), after which binding of all Nbs to LRRK2 was determined. […]

T1 sequence (Q5S007 whole entry R50H/M2397T): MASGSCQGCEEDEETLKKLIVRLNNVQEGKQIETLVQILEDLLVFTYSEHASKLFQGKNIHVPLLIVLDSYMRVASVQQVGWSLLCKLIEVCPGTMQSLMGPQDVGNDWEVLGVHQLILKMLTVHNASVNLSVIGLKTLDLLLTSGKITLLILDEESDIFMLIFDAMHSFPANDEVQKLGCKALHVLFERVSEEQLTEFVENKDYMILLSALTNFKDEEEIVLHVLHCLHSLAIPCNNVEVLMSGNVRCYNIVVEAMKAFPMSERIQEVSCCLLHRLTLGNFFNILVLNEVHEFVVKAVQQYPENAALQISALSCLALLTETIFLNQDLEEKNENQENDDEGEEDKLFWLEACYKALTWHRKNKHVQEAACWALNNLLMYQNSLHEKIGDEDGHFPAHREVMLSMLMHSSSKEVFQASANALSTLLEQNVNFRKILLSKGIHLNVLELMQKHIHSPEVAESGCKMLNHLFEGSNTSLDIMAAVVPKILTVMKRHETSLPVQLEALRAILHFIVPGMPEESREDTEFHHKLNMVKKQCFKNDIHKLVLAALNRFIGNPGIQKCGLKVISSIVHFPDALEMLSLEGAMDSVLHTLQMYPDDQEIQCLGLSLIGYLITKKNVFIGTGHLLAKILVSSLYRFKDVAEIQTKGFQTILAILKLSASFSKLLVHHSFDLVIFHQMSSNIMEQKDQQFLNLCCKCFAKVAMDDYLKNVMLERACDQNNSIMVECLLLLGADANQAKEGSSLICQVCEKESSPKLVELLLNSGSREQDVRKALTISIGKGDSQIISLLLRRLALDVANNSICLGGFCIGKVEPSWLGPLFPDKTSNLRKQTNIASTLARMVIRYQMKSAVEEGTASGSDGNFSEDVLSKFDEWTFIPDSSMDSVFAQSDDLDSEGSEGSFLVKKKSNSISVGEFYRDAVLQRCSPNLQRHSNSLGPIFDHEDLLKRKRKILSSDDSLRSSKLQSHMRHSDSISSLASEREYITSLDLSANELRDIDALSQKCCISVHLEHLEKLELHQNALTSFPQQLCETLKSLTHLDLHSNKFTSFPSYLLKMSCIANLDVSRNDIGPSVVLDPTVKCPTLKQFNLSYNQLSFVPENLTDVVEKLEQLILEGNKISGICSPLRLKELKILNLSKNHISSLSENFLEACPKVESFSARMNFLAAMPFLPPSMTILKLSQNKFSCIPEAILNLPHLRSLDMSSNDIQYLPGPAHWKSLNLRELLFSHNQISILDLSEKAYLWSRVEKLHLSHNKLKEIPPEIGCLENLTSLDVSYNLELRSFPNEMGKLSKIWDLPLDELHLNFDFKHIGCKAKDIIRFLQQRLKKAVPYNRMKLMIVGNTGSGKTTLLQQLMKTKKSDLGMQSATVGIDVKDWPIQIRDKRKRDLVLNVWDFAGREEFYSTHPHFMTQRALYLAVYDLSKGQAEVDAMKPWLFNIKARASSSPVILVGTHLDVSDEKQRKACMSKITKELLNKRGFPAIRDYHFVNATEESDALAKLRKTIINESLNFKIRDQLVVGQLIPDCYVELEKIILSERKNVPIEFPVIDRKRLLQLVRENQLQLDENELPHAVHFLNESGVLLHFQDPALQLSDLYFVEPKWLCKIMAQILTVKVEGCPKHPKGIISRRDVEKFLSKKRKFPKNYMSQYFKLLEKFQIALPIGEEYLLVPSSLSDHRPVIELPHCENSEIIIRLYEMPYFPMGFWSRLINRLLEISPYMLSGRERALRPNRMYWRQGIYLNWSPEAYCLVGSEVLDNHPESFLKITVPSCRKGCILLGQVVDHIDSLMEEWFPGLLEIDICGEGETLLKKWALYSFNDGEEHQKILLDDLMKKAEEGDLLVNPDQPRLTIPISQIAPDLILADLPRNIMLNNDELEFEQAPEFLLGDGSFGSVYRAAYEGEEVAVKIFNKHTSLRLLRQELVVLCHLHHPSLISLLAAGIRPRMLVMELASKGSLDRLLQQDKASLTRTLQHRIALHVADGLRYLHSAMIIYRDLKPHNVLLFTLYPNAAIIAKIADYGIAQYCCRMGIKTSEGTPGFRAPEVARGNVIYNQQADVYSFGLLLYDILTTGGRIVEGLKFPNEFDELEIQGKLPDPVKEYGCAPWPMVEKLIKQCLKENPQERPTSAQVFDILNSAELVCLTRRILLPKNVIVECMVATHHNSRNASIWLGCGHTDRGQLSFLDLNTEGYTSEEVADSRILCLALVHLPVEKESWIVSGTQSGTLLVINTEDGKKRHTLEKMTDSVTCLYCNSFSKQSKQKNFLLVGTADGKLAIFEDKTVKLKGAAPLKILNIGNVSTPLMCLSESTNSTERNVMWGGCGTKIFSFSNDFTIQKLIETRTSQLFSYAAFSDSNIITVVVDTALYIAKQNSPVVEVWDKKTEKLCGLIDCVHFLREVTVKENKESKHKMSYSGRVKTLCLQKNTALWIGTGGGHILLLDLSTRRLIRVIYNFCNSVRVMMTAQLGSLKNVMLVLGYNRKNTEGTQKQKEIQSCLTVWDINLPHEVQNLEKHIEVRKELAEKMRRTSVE

B1: Nb23: LRRK2-specific Nanobody, SEQ ID NO: 3 (protein)
VHH: MAQVQLVESGGGLVQAGGSLRLSCAASGRTFSRYTMGWFRQAPGKDREFVARITTSGAVTTYADSAKGRFTISRDNAKNTVYLQMNTLKPEDTAVYYCAAGQGQLSSQSRFVDYWGQGTQVTVSS
modifications: Nanobody CA13612
KD (nM)-MST: did not generate a change in thermophoresis behavior
